# Test results: patent US7666582B2, “IdeS, an IgG-degrading enzyme of Streptococcus pyogenes” (Hansa Medical Research AB, priority 2001, dated 2010)
# B1: IdeS: new extracellular cysteine protease produced by S. pyogenes, highly specific for IgG; SEQ ID NO: 1 (protein)
# chain: DSFSANQEIRYSEVTPYHVTSVWTKGVTPPANFTQGEDVFHAPYVANQGWYDITKTFNGKDDLLCGAATAGNMLHWWFDQNKDQIKRYLEEHPEKQKINFNGEQMFDVKEAIDTKNHQLDSKLFEYFKEKAFPYLSTKHLGVFPDHVIDMFINGYRLSLTNHGPTPVKEGSKDPRGGIFDAVFTRGDQSKLLTSRHDFKEKNLKEISDLIKKELTEGKALGLSHTYANVRINHVINLWGADFDSNGNLKAIYVTDSDSNASIGMKKYFVGVNSAGKVAISAKEIKEDNIGAQVLGLFTLSTGQDSWNQTN
# modifications: S. Pyogenes
# Legend:
# [1] = tested on: human IgG; assay: IdeS cleavage assay of Ig classes: IgG; type: biochemical
# Protocol: (§1) For standard IdeS activity assays, bacteria cultures were grown to OD620=0.4. Bacteria were pelleted by centrifugation and supernatants were sterile-filtered through a 0.22 μm membrane (Millipore) prior to use. For activity assays, […] of supernatant were mixed with 5 μl of IgG (10 mg/ml, Sigma) and the volume was adjusted with PBS to 100 μl. For screening of IdeS activity in different S. progenes strains, E64 was added to a final concentration of 40 μM. The mixtures were incubated at 37° C. for 30 min and samples were analyzed by 12% SDS-PAGE. For cleavage assays of different classes of Ig, purified IdeS (0.3 μg/ml) was incubated with 3 μg Ig for 2 h at 37° C., and analyzed by 12% SDS-PAGE analysis.
# [2] = tested on: IgG bound to AP1 bacteria; assay: IdeS cleavage of IgG bound to S. pyogenes bacterial surface; type: cell-based, human; conditions: AP1 bacteria after absorption of non-immune or immune plasma
# [3] = target: albumin (Homo sapiens, UniProt P02768); assay: IdeS cleavage of other human proteins: albumin; type: biochemical
# [4] = target: α 1-antitrypsin (Homo sapiens, UniProt P01009); assay: IdeS cleavage of other human proteins: α 1-antitrypsin; type: biochemical
# [5] = tested on: human IgM; assay: IdeS cleavage assay of Ig classes: IgM; type: biochemical; conditions: purified IdeS, 2 h at 37° C.
# Protocol: as §1
# [6] = tested on: human IgA; assay: IdeS cleavage assay of Ig classes: IgA; type: biochemical; conditions: purified IdeS, 2 h at 37° C.
# Protocol: as §1
# [7] = target: T1, cystatin C (Rattus norvegicus, UniProt P14841); assay: IdeS incubation with rat cystatin C; type: biochemical
# T1 sequence (P14841 21-140): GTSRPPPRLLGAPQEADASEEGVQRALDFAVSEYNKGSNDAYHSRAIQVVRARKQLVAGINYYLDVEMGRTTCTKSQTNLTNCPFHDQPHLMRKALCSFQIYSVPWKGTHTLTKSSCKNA
# [8] = tested on: synthetic peptide homologous to amino acids 234 to 241 of human IgG; assay: IdeS activity towards peptides: IgG hinge peptide; type: biochemical
# [9] = target: aprotinin (Bos taurus, UniProt P00974); assay: IdeS cleavage of other human proteins: aprotinin; type: biochemical
# [10] = tested on: different subclasses of IgG; assay: IdeS activity against the subclasses of IgG; type: biochemical, human
# [11] = tested on: Fc-fragment generated by papain cleavage, including 12 amino acids of the hinge region; assay: IdeS cleavage of papain-generated Fc-fragment; type: biochemical, human
# [12] = target: T2, cystatin C (Gallus gallus, UniProt P01038); assay: IdeS incubation with chicken cystatin C; type: biochemical
# T2 sequence (P01038 24-139): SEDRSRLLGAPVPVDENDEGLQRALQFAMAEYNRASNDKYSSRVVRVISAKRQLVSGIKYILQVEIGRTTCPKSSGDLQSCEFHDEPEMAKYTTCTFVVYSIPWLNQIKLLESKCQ
# [13] = target: T3, antimicrobial peptide LL-37 (Homo sapiens, UniProt P49913); assay: IdeS activity towards peptides: LL-37; type: biochemical
# T3 construct: antimicrobial peptide LL-37
# T3 sequence (P49913 134-170 limits assumed): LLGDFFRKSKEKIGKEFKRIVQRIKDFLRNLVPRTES
# [14] = target: T4, cystatin C (Homo sapiens, UniProt P01034); assay: IdeS cleavage of other human proteins: cystatin C; type: biochemical
# T4 sequence (P01034 27-146): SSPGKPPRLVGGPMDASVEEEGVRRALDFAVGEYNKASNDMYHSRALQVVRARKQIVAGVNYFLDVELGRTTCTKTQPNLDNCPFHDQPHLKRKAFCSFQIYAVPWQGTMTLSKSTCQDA
# [15] = target: T5, cystatin D (Homo sapiens, UniProt P28325); assay: IdeS cleavage of other human proteins: cystatin D; type: biochemical
# T5 sequence (P28325 21-142): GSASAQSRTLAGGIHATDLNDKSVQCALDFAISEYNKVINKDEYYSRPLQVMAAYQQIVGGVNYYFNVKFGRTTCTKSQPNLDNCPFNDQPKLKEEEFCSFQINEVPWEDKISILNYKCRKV
# [16] = target: fibronectin (Homo sapiens, UniProt P02751); assay: IdeS cleavage of other human proteins: fibronectin; type: biochemical
# Sequence of fibronectin (P02751 32-2477): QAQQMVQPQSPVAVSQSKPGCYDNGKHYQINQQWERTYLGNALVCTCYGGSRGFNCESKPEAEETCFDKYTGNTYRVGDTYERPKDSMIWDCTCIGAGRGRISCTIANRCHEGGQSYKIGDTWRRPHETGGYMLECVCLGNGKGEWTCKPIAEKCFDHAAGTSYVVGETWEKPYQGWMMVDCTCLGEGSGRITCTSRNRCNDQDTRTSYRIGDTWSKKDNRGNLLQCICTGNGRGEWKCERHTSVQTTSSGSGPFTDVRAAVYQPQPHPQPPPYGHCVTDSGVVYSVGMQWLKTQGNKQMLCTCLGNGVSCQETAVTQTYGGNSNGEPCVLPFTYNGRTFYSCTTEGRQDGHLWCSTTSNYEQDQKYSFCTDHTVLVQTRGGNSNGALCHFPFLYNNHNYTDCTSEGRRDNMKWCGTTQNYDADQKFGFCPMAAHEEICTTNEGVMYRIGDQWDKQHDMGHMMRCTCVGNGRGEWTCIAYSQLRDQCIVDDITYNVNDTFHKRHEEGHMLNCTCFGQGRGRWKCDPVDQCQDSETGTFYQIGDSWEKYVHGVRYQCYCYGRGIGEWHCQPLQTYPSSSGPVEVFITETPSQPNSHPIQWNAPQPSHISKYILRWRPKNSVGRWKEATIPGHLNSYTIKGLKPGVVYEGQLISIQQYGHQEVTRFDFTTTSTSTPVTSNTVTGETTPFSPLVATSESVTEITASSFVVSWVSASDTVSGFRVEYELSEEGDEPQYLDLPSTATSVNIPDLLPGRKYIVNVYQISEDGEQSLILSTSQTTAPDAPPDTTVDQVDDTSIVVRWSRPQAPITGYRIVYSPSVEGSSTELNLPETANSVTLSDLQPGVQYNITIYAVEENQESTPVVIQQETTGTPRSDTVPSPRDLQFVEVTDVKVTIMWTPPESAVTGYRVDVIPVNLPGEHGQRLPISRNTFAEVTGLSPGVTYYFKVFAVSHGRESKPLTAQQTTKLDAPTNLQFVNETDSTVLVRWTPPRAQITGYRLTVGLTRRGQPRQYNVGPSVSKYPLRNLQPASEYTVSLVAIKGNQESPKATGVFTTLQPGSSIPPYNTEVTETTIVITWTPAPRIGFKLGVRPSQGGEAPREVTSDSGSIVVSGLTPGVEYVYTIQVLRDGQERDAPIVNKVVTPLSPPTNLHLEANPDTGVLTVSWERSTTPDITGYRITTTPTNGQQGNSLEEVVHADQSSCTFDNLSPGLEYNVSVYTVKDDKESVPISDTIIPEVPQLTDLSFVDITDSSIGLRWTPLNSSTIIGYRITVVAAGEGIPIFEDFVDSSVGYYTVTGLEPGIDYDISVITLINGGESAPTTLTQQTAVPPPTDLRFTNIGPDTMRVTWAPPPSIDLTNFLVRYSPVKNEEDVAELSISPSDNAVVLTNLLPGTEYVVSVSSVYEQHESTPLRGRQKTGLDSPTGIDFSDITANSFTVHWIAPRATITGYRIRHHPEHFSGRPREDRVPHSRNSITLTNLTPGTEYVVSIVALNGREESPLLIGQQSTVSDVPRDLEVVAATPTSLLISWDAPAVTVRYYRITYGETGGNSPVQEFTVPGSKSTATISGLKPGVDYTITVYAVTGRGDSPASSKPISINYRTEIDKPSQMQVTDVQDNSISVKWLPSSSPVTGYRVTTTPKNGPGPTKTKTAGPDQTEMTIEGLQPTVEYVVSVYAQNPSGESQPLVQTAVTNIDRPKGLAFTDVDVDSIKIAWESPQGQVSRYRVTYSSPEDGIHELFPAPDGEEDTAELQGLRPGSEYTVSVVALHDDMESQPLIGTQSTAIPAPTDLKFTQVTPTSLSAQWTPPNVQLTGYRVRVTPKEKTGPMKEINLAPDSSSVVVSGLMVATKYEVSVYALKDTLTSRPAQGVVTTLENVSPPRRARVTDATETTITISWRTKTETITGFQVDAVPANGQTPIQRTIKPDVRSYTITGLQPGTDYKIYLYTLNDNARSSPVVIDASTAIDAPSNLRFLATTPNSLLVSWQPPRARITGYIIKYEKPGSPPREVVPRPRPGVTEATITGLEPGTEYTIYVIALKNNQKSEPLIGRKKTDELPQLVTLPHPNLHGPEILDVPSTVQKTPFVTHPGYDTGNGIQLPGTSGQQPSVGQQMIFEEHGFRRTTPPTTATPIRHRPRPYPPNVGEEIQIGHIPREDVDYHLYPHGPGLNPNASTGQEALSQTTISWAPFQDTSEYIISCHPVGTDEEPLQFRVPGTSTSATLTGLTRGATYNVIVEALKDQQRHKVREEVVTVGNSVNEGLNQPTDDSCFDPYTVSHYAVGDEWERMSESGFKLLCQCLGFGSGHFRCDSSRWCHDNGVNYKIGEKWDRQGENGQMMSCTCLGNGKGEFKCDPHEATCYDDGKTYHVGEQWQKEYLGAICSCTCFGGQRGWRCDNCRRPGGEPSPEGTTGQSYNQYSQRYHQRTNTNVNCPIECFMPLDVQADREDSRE
# Sequence of α 1-antitrypsin (P01009 25-418): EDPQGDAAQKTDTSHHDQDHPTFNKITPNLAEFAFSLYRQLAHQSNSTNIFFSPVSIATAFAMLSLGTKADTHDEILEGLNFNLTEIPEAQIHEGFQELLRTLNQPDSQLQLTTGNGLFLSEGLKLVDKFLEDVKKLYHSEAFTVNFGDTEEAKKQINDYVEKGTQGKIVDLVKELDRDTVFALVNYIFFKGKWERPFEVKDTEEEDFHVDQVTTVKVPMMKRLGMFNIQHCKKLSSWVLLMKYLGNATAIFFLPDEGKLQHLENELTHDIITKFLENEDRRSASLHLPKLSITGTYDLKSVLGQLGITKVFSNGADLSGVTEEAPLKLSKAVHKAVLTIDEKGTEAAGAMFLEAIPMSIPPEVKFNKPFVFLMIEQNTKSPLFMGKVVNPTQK
molecule,measurement,setting,value
B1,degradation of human IgG,"[1]; purified IdeS, 2 h at 37° C.",only IgG was degraded
same,cleavage of human IgG,[1]; species restrictions,cleave
same,cleavage of IgG bound to the bacterial surface (31 kDa band),[2],in both cases IgG was cleaved
same,"cleavage products, albumin",[3],No cleavage products could be detected
same,"cleavage products, α 1-antitrypsin",[4],No cleavage products could be detected
same,degradation of human IgM,[5],only IgG was degraded
same,degradation of human IgA,[6],only IgG was degraded
same,"cleavage products, cystatin C from rat",[7],No cleavage products could be observed
same,degradation of synthetic peptide (amino acids 234 to 241 of human IgG),[8],did not reveal any degradation
same,"cleavage products, aprotinin",[9],No cleavage products could be detected
same,digestion of the different subclasses of IgG,[10],all were susceptible for IdeS digestion
same,cleavage of papain-generated Fc-fragment,[11],is cleaved
same,"cleavage products, cystatin C from chicken",[12],No cleavage products could be observed
same,degradation of LL-37,[13],did not reveal any degradation
same,"cleavage products, cystatin C",[14],No cleavage products could be detected
same,"cleavage products, cystatin D",[15],No cleavage products could be detected
same,"cleavage products, fibronectin",[16],No cleavage products could be detected
